One data set has as its target T1, Card1 (Tresu_2185, Cad1) (Treponema succinifaciens, UniProt F2NWD3 1-372).
T1 sequence: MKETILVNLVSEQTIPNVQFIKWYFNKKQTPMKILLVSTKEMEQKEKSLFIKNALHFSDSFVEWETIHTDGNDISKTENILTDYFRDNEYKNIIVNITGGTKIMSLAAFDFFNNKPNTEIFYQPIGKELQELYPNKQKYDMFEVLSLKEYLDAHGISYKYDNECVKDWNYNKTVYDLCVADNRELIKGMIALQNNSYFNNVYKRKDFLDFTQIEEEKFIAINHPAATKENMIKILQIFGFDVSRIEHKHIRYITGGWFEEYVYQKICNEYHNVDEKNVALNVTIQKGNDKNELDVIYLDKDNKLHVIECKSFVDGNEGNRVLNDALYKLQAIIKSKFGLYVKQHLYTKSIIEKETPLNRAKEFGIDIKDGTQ
The data set can be described thus: ITC. On the technique in general: In ITC the heat of successive injections is recorded.

The target of a further data set is T2, Card1 D294N (Treponema succinifaciens, UniProt F2NWD3 1-372, D294N).
T2 sequence: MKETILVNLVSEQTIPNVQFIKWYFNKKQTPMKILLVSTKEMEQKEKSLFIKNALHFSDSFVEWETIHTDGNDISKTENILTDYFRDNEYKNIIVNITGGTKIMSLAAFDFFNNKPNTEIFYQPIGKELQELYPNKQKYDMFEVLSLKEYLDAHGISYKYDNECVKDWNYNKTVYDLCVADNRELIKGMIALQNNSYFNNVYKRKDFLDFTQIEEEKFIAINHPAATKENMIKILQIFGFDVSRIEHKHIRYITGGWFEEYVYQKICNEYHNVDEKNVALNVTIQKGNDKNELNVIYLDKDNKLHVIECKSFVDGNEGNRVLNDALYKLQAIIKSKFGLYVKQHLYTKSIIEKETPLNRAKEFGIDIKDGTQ
The data set can be described thus: crystal structure.

By Kd is commonly meant the equilibrium constant for the complex coming apart. Read a low Kd as higher affinity. AAAAAA (ssRNA, cyclic 3'-5' oligoadenylate; no free ends) [cA6 (cyclic hexaadenylate)] came in with a Kd with Card1 (Tresu_2185, Cad1) of 78 nM.
For the molecule AAAA (ssRNA, cyclic 3'-5' oligoadenylate; no free ends) [cA4 (cyclic tetraadenylate)], the binding result with Card1 D294N is “binds”. The molecule also came in with a Kd with Card1 (Tresu_2185, Cad1) of 15 nM.

These data come from publication PMC7906951.
